US10920254B2, “Methods and materials for producing 5 and 7-carbon monomers” (INVISTA North America S.á.r.l., priority 2015, dated 2021)

Assay: coupled assay of 5-hydroxyvalerate CoA transferase and thiolase, LC-MS detection of acyl-CoAs
Type: biochemical
Details: 1 mM acetyl-CoA, 1 mM 5-hydroxyvalerate, pH 6.8, 30° C.; no analytical standards, ions of expected molecular weight
Procedure: For each culture, expression plasmids were freshly transformed into BL21(DE3) (Agilent). Colonies from fresh agar plates were used to inoculate 20 ml LB in 250 ml flask overnight pre-culture. For all constructs except 237, ampicillin was used, for 237 kanamycin was required. After incubation overnight at 37° C. and 200 rpm, pre-cultures were used to inoculate (1:100) larger cultures, 350 ml LB, with respective antibiotic in […]. After 2.5 h of shaking with 200 rpm at 37° C., cultures reached OD600 in the range 0.5-0.7 at which point they were induced with 1 mM IPTG and the temperature of the culture was changed to 25° C. Incubation continued overnight. Cells were harvested the next day and stored at −20° C. until protein purification was performed.
To purify an overexpressed protein, a bacterial pellet from a 350 ml culture was resuspended in up to total 20 ml of Binding Buffer (20 mM Sodium phosphate pH 7.4, 500 mM Sodium chloride, 20 mM imidazole, 5% glycerol) and sonicated for 2 min with a microtip (amplitude 50%, 1 s pulse ON, 2 s OFF). Cell suspension was centrifuged with 20,000 G for 30 min at 4° C. As all the tested proteins were His-tagged, the purification with Immobilized Metal Affinity Chromatography was sufficient to ensure both necessary purity and amount for the enzymatic assays. […]

B1: BDIGENE #246: Clostridium viride 5-hydroxyvalerate CoA transferase (protein)
chain: MAQFVTAQEAVKHIPNGSRVVLAHSTGEPRTLVKAMVENYEQYKDVEVCHMLGLGPYEYTNPEMKGHLWHNSLFMGPGGRKAFNENRLDFTPGYFCDSIKFFREGYLPVDVLMMTVSPPDKHGYVTCGITCDFTMPAFECAKMVIVQVNKNMPRTFGQTAIHLDDIDFAVEADDPLYGSVPGELTDIDRKIGEHCASLINDGACLQLGIGGIPNAVLTYLTEKNDMGIHSEMLSDGILQLIKAGNINNSKKQIHVGKSAVTFLNGSQELYDYVDDNPSVEFYPVDYINDPYVIGKNDNMVSVNSALSVDLMGQIVADNLSATRQISGAGGFVDFVRGATISKGGISIVAMPSTAAGGKASRIEMMFDAGRPITLTRFESFYVVTEYGIAKMRGNSLRTRARQLIEIAHPDFRDEMKEFYEKRFGEKY
modifications: Clostridium viride
notes: Clostridium viride 5-hydroxyvalerate CoA transferase
- intermediate product 5-hydroxyvaleryl-CoA by LC-MS: detected in all samples containing both substrates and BDIGENE #246
